Laboratory results taken from US20180037654A1 (ADURO BIOTECH HOLDINGS EUROPE B V, published 2018).

T1: Mou-Hum-CTLA-4 (mouse/human chimera)
T1 construct: Mouse residues on strand 1, 2, 5 and 6 and human residues on strand 3, 4, 7 and 8; transiently expressed on CHO-K1 cells; also called mouse-human variant; mouse-human exchange mutant
T1 chain: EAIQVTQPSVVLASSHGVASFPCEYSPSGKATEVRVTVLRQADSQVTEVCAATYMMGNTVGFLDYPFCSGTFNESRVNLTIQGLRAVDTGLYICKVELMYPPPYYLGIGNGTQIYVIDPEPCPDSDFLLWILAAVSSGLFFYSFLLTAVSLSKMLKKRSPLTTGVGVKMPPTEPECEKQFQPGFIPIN

T2: human CTLA-4 (human, UniProt P16410 36-223)
T2 construct: Endogenous CTLA-4 of stimulated human CD3+ T cells (stained after fixation and permeabilization) and membrane CTLA-4 of the Jurkat reporter cells; also called hCTLA-4; CTLA-4 expressed on human CD3+ T cells
T2 sequence: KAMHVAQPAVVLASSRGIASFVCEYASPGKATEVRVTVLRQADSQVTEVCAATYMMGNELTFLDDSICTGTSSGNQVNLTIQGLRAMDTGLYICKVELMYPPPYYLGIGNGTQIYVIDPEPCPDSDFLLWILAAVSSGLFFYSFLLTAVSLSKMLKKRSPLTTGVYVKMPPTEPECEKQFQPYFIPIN

T3: Hum-Mou-CTLA-4 (human/mouse chimera)
T3 construct: Human residues on strand 1, 2, 5 and 6 and mouse residues on strand 3, 4, 7 and 8; transiently expressed on CHO-K1 cells; also called human-mouse variant; human-mouse exchange mutant
T3 chain: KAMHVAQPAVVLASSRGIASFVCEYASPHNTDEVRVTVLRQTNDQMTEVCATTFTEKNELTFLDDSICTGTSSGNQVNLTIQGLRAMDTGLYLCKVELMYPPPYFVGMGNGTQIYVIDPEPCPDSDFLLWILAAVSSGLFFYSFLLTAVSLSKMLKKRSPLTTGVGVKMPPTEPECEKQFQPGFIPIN

B1: hCTLA4.27A.C4 (antibody, V domains shown)
VH: QVQLQQPGAVLVRPGVSVKLSCKASGYSFTTYWMNWVKQRPGQGLEWIGMIHPSDSETSLNQAFKDKATLTIDKSSSTAYMQLSSPTSEDSAVYFCARMGRRNPYYFDYWGQGTTLTVSS
VL: DIQMTQSPVSLSVSVGETVTITCRPSENLYTNLAWYQQKQGKSPQLLVYGATNLADGVPSRFSGSGSGTQYSLRINSLQSEDFGTYYCQHLWGTPFTFGSGTKLELK
notes: Chimeric: mouse variable domains on human IgG4, kappa; also called hCTLA4.27A chimeric hIgG4
B2: hCTLA4.27A (antibody, V domains shown)
VH: B1 VH
VL: B1 VL
notes: also called mouse hCTLA4.27A; parental antibody

Key:
[1] = biological target: T1, Mou-Hum-CTLA-4; assay: CELISA on CHO-K1 cells transiently transfected with Mou-Hum-CTLA-4, panel Mouse/Human
Method: (§1) The cDNAs encoding these constructs (SEQ ID NO: 41 and 43, respectively) were synthesized and subcloned into the pCI-Neo vector (GeneArt). […] To this end CHO-K1 cells were transiently transfected, using Lipofectamine 2000 (Invitrogen), with the pCI-Neo vectors expressing human CTLA-4 (hCTLA-4), mouse CTLA-4 (mCTLA-4) (SEQ ID NO: 45), Hum-Mou-CTLA-4, and Mou-Hum-CTLA-4 respectively. The transfected cells were cultured at 37° C., 5% CO₂ and 95% humidity in medium (DMEM-F12 (Gibco) with 5% New Born Calf serum (Biowest) and Pen/Strep (Gibco)) until confluent. Subsequently, cells were trypsinized and seeded in tissue culture plates and cultured at 37° C., 5% CO₂ and 95% humidity in culture medium until confluent. Then, culture medium was removed and cells were incubated for 1 hour at 37° C., 5% CO₂ and 95% humidity with hCTLA-4 antibodies. Next, cells were washed with PBS/0.05% Tween (PBST) and incubated for 1 hour at 37° C., 5% CO₂ and 95% humidity with 1:2,000 goat-anti-human IgG-HRP (Jackson Immunoresearch). After that, cells were washed 3 times with PBST and anti-CTLA-4 immunoreactivity was visualized with TMB Stabilized Chromagen (Invitrogen).

[2] = biological target: T4, human CTLA-4 (Y166G and Y183G) expressed on CHO-K1.hCTLA-4 cells (human, UniProt P16410 36-223); assay: CELISA, blockade of biotinylated hCD80/Fc binding to CHO-K1.hCTLA-4 cells
Method: CHO-K1.hCTLA-4 cells were seeded in tissue culture plates and incubated at 37° C., 5% CO₂ and 95% humidity in culture medium. Once the cells were confluent culture medium was removed and cells were incubated for 1 hour with the humanized hCTL4.27 antibody variants (10 μg/ml and dilutions thereof) at 37° C., 5% CO₂ and 95% humidity. […] Cells were then washed with PBST followed by addition of Streptavidin-HRP conjugate on the cells, which was incubated for 1 hour at 37° C., 5% CO₂ and 95% humidity. […] Reactions were stopped with 0.5 M H₂SO₄ and absorbances were read at 450 and 610 nm. […] IC50 values represent the concentration at which half of the inhibition is observed.
Target sequence in this assay (P16410 36-223 Y201G/Y218G limits assumed): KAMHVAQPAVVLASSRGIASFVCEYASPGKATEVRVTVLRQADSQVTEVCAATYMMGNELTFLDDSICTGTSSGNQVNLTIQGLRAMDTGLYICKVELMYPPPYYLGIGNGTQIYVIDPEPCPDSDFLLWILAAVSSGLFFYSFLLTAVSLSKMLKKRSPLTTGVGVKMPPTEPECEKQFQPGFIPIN

[3] = biological target: T2, human CTLA-4; assay: CELISA on CHO-K1 cells transiently transfected with human CTLA-4, panel Human
Method: as §1

[4] = biological target: T4, human CTLA-4 (Y166G and Y183G) …; assay: CELISA on CHO-K1.hCTLA-4 cells (Example 6)
Method: (§2) In short, CELISA for hCTLA-4 binding was performed on CHO-K1.hCTLA-4 cells. […] Once the cells were confluent culture medium was removed and cells were incubated for 1 hour with the hCTL4.27 antibodies and control antibodies (10 μg/ml and dilutions thereof) at 37° C., 5% CO₂ and 95% humidity. […] Cells were then washed with PBST followed by addition of Streptavidin-HRP conjugate on the cells, which was incubated for 1 hour at 37° C., 5% CO₂ and 95% humidity. […] Reactions were stopped with 0.5 M H₂SO₄ and absorbances were read at 450 and 610 nm. IC50 values represent the concentration at which half of the inhibition is observed.

[5] = biological target: T4, human CTLA-4 (Y166G and Y183G) …; assay: CELISA, blockade of biotinylated hCD86/Fc binding to CHO-K1.hCTLA-4 cells (Example 6)
Method: as §2

[6] = biological target: T3, Hum-Mou-CTLA-4; assay: CELISA on CHO-K1 cells transiently transfected with Hum-Mou-CTLA-4, panel Human/Mouse
Method: as §1

[7] = biological target: T4, human CTLA-4 (Y166G and Y183G) …; assay: CELISA, blockade of biotinylated hCD80/Fc binding to CHO-K1.hCTLA-4 cells (Example 6)
Method: as §2

[8] = biological target: T4, human CTLA-4 (Y166G and Y183G) …; assay: CELISA on CHO-K1.hCTLA-4 cells
Method: Binding of the humanized antibodies to hCTLA-4 was studied in CELISA format. CHO-K1.hCTLA-4 cells were seeded in culture medium (DMEM-F12 (Gibco) with 10% Fetal Bovine Serum (Hyclone) and Pen/Strep (Gibco)) in tissue culture plates and cultured at 37° C., 5% CO₂ and 95% humidity until they were confluent. Subsequently, culture medium was removed and cells were incubated for 1 hour at 37° C., 5% CO₂ and 95% humidity with purified hCTLA-4 antibodies (10 μg/ml and dilutions thereof). Next, cells were washed with PBS/0.05% Tween (PBST) and incubated for 1 hour at 37° C., 5% CO₂ and 95% humidity with goat-anti-human IgG-HRP (Southern Biotechnology) or goat-anti-mouse IgG-HRP (Southern Biotechnology). Subsequently, cells were washed 3 times with PBST and anti-hCTLA-4 immunoreactivity was visualized with TMB Stabilized Chromagen (Invitrogen). Reactions were stopped with 0.5 M H₂SO₄ and absorbances were read at 450 and 610 nm.
Target sequence in this assay (P16410 36-223 Y201G/Y218G limits assumed): as above

[9] = biological target: T4, human CTLA-4 (Y166G and Y183G) …; assay: CELISA, blockade of biotinylated hCD80/Fc binding to CHO-K1.hCTLA-4 cells (Example 6); blockade of hCD80/Fc binding to CHO-K1.hCTLA-4 cells
Method: as §2

[10] = biological target: T5, rhCTLA-4/Fc/6His (human); assay: BLI (Octet RED96), antibody amine-coupled to biosensor, rhCTLA-4/Fc 2.5-40 nM, 1:1 global fit
T5 construct: Bought from R&D Systems
Method: hCTLA4.27 binding kinetics and equilibrium binding constants were profiled using […] on the Octet RED96 and compared to several antibodies known in the art. […] Amine-reactive biosensors were pre-wet by immersing them in wells containing 0.1M MES pH=5.5 for 10 minutes. The biosensors were then activated using a 0.1M NHS/0.4M EDC mixture for 5 minutes. Antibodies were coupled by immersing the biosensors in a solution of 2.5 or 12 ug/mL antibody in 0.1M MES for 7.5 minutes. The biosensor surface was quenched using a solution of IM ethanolamine for 5 minutes. Biosensors were equilibrated in Octet kinetics buffer (ForteBio) for 5 minutes. Association of rhCTLA-4/Fc (R&D Systems) was observed by placing the biosensors in wells containing various rhCTLA-4/Fc concentrations (2.5-40 nM) and monitoring interferometry for 15 minutes. Dissociation was measured after transfer of the biosensors into kinetics buffer and monitoring of the interferometry signal for 45 minutes. The assay was run with a plate temperature of 30° C. The observed on and off rates (kon and kdis) were fit using a 1:1 binding global fit model comprising all concentrations tested, and the equilibrium binding constant KD was calculated.

T5 sequence (chain, as listed by the source limits assumed): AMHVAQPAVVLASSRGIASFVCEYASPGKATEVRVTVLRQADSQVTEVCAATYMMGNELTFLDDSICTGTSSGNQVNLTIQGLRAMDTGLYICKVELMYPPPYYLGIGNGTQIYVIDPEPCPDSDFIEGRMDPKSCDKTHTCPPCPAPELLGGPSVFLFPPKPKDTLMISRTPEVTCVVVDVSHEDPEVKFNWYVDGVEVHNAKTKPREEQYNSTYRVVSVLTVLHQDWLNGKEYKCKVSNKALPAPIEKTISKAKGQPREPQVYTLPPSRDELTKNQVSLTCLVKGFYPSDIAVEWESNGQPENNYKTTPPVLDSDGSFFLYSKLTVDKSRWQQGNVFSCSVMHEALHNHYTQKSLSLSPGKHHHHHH

| Binder | binding result [1] | IC50 [2] [nM] | EC50 (read off the curve) [3] [nM] | EC50 [4] [nM] | IC50 [5] [nM] | EC50 (read off the curve) [6] [nM] | IC50 [7] [nM] | EC50 [8] [nM] | IC50 [9] [nM] | Kd [10] [nM] | koff [10] [s⁻¹] | kon [10] [M⁻¹ s⁻¹] |
| --- | --- | --- | --- | --- | --- | --- | --- | --- | --- | --- | --- | --- |
| B1 | no binding (tested: log nM about 1.8 (about 60 nM)) | 1.61 | ~0.06 | 0.053 | 1.21 | ~0.08 | 1.6 | 0.033 | – | – | – | – |
| B2 | – | 2.17 | – | 0.053 | 2.17 | – | – | 0.048 | 2.71 | 2 | 0.00045 | 500000 |
